Data from publication PMC12598616, “Design and optimization of caspase-1-responsive fluorescent probes for pyroptosis imaging and anti-pyroptosis drug screening” (Chemical Science, 2025).

Tested on: THP-1 cells
Test: Cytotoxicity assay (CCK-8)
Type: cell-based
Settings: CCK-8, 0–50 μM, 12 h, 37 °C
Method: Cytotoxicity assay (CCK-8)
The cytotoxicity of FPy1 and YPy1 to THP-1 was evaluated by cell counting kit-8 (CCK-8). Briefly, the THP-1 cells were seeded in 96-well plates (5000 cells/well) and cultured at 37 °C for 24 hours. Various concentrations of FPy1 or YPy1 (0, 2.5, 5, 10, 20, 30, 40, 50 μM) in RPMI 1640 medium were added, and the cells were kept incubation for 12 hours. Then, the cells were washed with PBS and incubated in the 100 μL fresh medium with 10 μL CCK8 dye for an additional 2 hours. The absorbance was measured at 450 nm using a Tecan Infinite M1000 Multi-function microplate reader, and cell viability was calculated using the formula:
Cell viability (%) = [(OD test-ODblank)/(ODcontrol-ODblank)] ×100%
Intracellular imaging with FPy1 in THP-1 cells
THP-1 cells were seeded in dishes and cultured overnight. […] The fluorescence imaging was performed under the excitation at 514 nm with signal collection in the range […]
for 4 hours, the cells were further treated with Nig (10 μM) for 2 hours. […] The distribution of FPy1 was analyzed by collecting organelle-specific dye fluorescence at 495-525 nm with 488 nm excitation, while simultaneously detecting FPy1 fluorescence at 530-610 nm with 514 nm excitation. […]
Nucleus pulposus cells were isolated from discs and resuspended in 1mL DMEM/F12 medium containing 10 μM ITS-A. A total of […] were counted and transferred into centrifuge tubes. […]

| Substance | cytotoxicity towards THP-1 cells |
| --- | --- |
| –YVADG– [YPy1, caspase-1-responsive FRET probe with recognition peptide –YVADG–; RhoB donor, hNR quencher] | low cytotoxicity |
| –FLTDG– [FPy1, RhoB donor, hNR quencher] | low cytotoxicity |
